Measurements from US20240376170A1 (BRIGHT PEAK THERAPEUTICS, published 2024).
Bridges are numbered along the chain shown (N, C = ends). Primed or numbered codes have the meaning given here. [ ]: non-standard residue; d: D form. Ygp(4) = Tyr with amino-capped PEG8 (O-(8x polyethylene glycol-amino)-tyrosine); Yn3(4) = Tyr with azide-capped PEG9 (O-(9x polyethylene glycol-azido)-tyrosine); Ygp = O-(8x polyethylene glycol-amino)-tyrosine (Tyr, amino-capped PEG8); Yn3 = O-(9x polyethylene glycol-azido)-tyrosine (Tyr, azide-capped PEG9); Ygp(3) = O-(PEG8-amino)-tyrosine; Yn3(3) = O-(PEG9-azido)-tyrosine; PEG4′ = 4x polyethylene glycol; PEG9′ = 9x polyethylene glycol; hSer = N[C@@H](CCO)C(=O)O; Nle = CCCC[C@H](N)C(=O)O

Legend:
IL-2 receptor βγ complex [1] = target: T1, IL-2 receptor βγ complex (human, UniProt P14784 27-551; P31785 23-369); assay: cell-based or functional assay
T1 sequence (looked up) 1: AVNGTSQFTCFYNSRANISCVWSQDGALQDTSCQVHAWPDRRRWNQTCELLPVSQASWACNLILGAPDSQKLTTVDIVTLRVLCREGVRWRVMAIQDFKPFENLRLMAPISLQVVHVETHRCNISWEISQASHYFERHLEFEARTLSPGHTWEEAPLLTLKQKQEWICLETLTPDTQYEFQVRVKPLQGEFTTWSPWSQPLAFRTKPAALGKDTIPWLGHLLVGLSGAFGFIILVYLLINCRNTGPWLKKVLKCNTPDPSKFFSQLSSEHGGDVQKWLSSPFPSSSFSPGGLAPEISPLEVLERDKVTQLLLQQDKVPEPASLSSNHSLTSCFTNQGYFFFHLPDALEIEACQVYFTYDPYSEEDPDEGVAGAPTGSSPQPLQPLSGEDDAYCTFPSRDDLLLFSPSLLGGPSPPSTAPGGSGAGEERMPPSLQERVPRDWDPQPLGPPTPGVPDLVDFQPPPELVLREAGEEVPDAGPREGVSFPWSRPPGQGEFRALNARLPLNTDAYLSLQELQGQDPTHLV
T1 sequence (looked up) 2: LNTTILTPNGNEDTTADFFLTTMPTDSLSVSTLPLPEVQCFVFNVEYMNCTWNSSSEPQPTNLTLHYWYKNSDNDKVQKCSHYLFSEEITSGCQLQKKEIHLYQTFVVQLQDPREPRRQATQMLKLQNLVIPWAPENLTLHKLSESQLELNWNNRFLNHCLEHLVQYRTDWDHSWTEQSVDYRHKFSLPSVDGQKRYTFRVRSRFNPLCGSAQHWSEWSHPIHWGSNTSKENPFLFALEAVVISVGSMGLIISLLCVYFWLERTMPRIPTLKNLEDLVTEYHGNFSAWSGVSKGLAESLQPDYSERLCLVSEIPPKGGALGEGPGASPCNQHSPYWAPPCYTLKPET

IL-2 receptor βγ complex [2] = target: T1, IL-2 receptor βγ complex; assay: cell-based or functional assay; remark: listed apart in the source
[3] = target: T2, recombinant human IL-2 receptor beta containing a His-tag and Avi-tag (human, UniProt P14784 27-239); assay: BLI (Octet R8), receptor on SAX2 sensor
T2 construct: Bought; attached to the SAX2 biosensor; also called CD122; IL-2R β; not shown: His-tag and Avi-tag
T2 sequence (looked up): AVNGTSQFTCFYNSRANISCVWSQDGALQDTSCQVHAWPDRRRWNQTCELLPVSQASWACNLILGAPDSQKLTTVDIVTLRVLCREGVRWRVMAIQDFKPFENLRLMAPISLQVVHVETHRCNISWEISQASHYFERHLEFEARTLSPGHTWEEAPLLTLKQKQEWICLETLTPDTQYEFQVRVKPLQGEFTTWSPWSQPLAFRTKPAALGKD
Method: (§1) Bilayer interferometry (BLI) assays were used to measure the binding constants between activatable IL-2 polypeptides (and activated versions thereof) to IL-2 receptor subunits or receptor complexes. BLI assays were conducted on an Octet® R8 instrument. Assay plates were 96 well, polypropylene, F-bottom (chimney well), black microplates (Greiner Bio-one, Cat. No: 655209). The biosensors were Octet® SAX2 (Sartorius, Cat. No: 18-5136). The assay buffer was 1X Kinetic Buffer (Sartorius, Cat. no: 18-5136) or Phosphate Buffered Saline (PBS) that contained 0.02% (v: v) Tween 20 (Polysorbate 20) and 0.1% (w/v) bovine serum albumin (BSA). The sensor was regenerated between measurements in 10 mM glycine pH 2.7 buffer.
(§2) Sensor attached receptors were either recombinant human IL-2 receptor beta containing a His-tag and Avi-tag™ (R&D Systems™) or an Avi-tag™ Fc with human IL-2R beta and IL-2R gamma attached (Acrobiosystems Cat. no: ACRB-ILG-H₈₂F3-25UG). Receptors were reconstituted from lyophilized powder to 500 μg/ml in PBS. Analytes were diluted in Kinetic buffer to 300 nM, then serially diluted to lower concentrations.

[4] = target: T3, Avi-tag Fc with human IL-2R beta and IL-2R gamma attached (Acrobiosystems ACRB-ILG-H82F3-25UG) (human, UniProt P14784 27-239; P31785 23-262); assay: BLI (Octet R8), receptor on SAX2 sensor
T3 construct: Bought; attached to the SAX2 biosensor; also called CD122 CD132; IL-2R βγ; not shown: Fc and Avi-tag
T3 sequence (looked up) 1: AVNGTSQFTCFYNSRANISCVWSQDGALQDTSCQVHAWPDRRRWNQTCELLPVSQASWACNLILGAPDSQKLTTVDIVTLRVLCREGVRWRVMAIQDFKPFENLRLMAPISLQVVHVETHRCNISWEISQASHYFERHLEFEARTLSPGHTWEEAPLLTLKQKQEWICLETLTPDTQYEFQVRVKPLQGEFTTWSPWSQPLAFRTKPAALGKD
T3 sequence (looked up) 2: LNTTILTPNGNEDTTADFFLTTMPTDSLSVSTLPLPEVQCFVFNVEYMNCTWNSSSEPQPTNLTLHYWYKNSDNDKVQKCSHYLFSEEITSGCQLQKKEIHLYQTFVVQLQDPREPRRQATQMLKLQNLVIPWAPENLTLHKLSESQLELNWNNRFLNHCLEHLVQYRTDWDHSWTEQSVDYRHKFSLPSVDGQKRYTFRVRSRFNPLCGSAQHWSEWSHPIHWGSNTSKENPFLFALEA
Method: as §1, §2

Binder	Average EC50, pSTAT5 Assay in NK cells (IL-2 receptor βγ complex [1]) [nM]	Average EC50, pSTAT5 Assay (T cells) (IL-2 receptor βγ complex [2]) [nM]	Kd [3] [nM]	koff [3] [s⁻¹]	kon [3] [M⁻¹ s⁻¹]	Kd [4] [nM]	koff [4] [s⁻¹]	kon [4] [M⁻¹ s⁻¹]
CMP-168, MMP2 cleaved molecule (ligand, not fully specified; ends and bridges not checked; also: MMP2 cleaved, cleavage site and linker fragments on Lys9 and Glu23 side chains not given here) APTSSSTKKTQLQLEHLLLDLQEILNGINNYKNPKLTR[Nle]L[hSer][Yn3(4)]KF[Ygp(4)][Nle]PKKATELKHLQCLEEELKPLEEVL[hSer]LAQSKNFHLRPRDLISNINVIVLELKGSETTF[hSer]CEYADETATIVEFLNRWITFSQSIISTLT	0.981	6.3	–	–	–	–	–	–
CMP-300 (ligand, lactam N-31; ends not checked) GPLGLAG[PEG4′]APTSSSTKKTQLQLEHLLLDLQEILNGINNYKNPKLTR[Nle]L[hSer][Yn3(4)]KF[Ygp(4)][Nle]PKKATELKHLQCLEEELKPLEEVL[hSer]LAQSKNFHLRPRDLISNINVIVLELKGSETTF[hSer]CEYADETATIVEFLNRWITFSQSIISTLT	38.1	94.7	–	–	–	–	–	–
CMP-300, MMP2 cleaved molecule (ligand, not fully specified; ends and bridges not checked; also: cleaved by MMP2, product not given here, N-terminus linked to another sequence via PEG4, Glu23 side chain linked to another sequence) APTSSSTKKTQLQLEHLLLDLQEILNGINNYKNPKLTR[Nle]L[hSer][Yn3(4)]KF[Ygp(4)][Nle]PKKATELKHLQCLEEELKPLEEVL[hSer]LAQSKNFHLRPRDLISNINVIVLELKGSETTF[hSer]CEYADETATIVEFLNRWITFSQSIISTLT	0.379	1.73	–	–	–	–	–	–
CMP-305, MMP2 cleaved molecule (ligand, also: m29 after MMP2 cleavage: Glu15-Lys23 cleavable peptide bridge cut, remnants on Glu15 and Lys23 not given here) APTSSSTKKTQLQLEHLLLDLQKILNGINNYKNPKLTR[Nle]L[hSer][Yn3]KF[Ygp][Nle]PKKATELKHLQCLEEELKPLEEVL[hSer]LAQSKNFHLRPRDLISNINVIVLELKGSETTF[hSer]CEYADETATIVEFLNRWITFSQSIISTLT	–	3.26	–	–	–	–	–	–
CMP-136 (ligand, bridge N-37; not fully specified (bridges)) [PEG9′]PLGLAG[PEG9′]APTSSSTKKTQLQLEHLLLDLQ[Nle]ILNGIENYKNPKLTR[Nle]L[hSer][Yn3]KF[Ygp][Nle]PKKATELKHLQCLEEELKPLEEVL[hSer]LAQSKNFHLRPRDLISNINVIVLELKGSETTF[hSer]CEYADETATIVEFLNRWITFSQSIISTLT	–	–	8.44	0.00767	909000	12.6	0.00498	396000
CMP-138 (ligand, bridge (positions not given here); not fully specified (bridges); numbers in words are those of the source; also: Cys58-Cys105 disulfide expected from oxidative folding) [PEG4′]SGGPGPAGMKGLPGS[PEG4′]APTSSSTKKTQLQLEHLLLDLQ[Nle]ILNGIENYKNPKLTR[Nle]L[hSer][Yn3(3)]KF[Ygp(3)][Nle]PKKATELKHLQCLEEELKPLEEVL[hSer]LAQSKNFHLRPRDLISNINVIVLELKGSETTF[hSer]CEYADETATIVEFLNRWITFSQSIISTLT	–	–	11.7	0.0105	898000	12.3	0.00284	232000
